# Literature values as cited in publication PMC9161494.
# Biological target: EGFR (Homo sapiens) (UniProt P00533)
substance,measurement,value
PEPDG278D (from UniProt P12955),Kd,17.7 nM
